Assay results taken from paper PMC10293748.

Target: SARS-CoV-2 RBDWT, His-tagged, soluble (SARS-CoV-2) (UniProt P0DTC2)
Assay: ELISA

soluble ACE2 (sACE2), commercially available, His-tagged (domain or fragment)
IC50: 179 nM
